# Laboratory results: article PMC4132745
# pKd: −log10 of the molar value.
# Test system: HMO1 (Saccharomyces cerevisiae)
# Experiment: optical tweezers (DNA stretching)
# Conditions: Assay buffer, salt, pH and temperature not given in the material (protein stored in 20 mM HEPES pH 7.5, 100 mM KCl, 1 mM EDTA, 1 mM DTT, 5% glycerol)
substance,measurement,setting,value
bacteriophage lambda DNA,pKd,"from contour length, omega = 18 +/- 5, n = 26 bp",8.72
same,pKd,"from overstretching force, omega = 80 +/- 15, n = 26 bp",8.55
same,pKd,"from persistence length, omega = 20 +/- 7, n = 26 bp",8.68
